Results published in article PMC11426443, “Signal-sensing triggers the shutdown of HemKR, regulating heme and iron metabolism in the spirochete Leptospira biflexa” (PLOS ONE, 2024).

Tests used:
HemKΔ80 = target: T1, HemKΔ80 (Leptospira biflexa, UniProt A5JUR4); experiment: autophosphorylation, PhosTag-SDS-PAGE; assay type: biochemical; conditions: 5 mM ATP, 10 mM MgCl2; phosphoryl transfer to HemK H98
T1 construct: gene LEPBI_I1423; soluble cytoplasmic catalytic region lacking first 80 residues (periplasmic and transmembrane); N-terminal His-tag cut by TEV; E. coli Rosetta-gami(DE3)
T1 sequence (A5JUR4 81-295): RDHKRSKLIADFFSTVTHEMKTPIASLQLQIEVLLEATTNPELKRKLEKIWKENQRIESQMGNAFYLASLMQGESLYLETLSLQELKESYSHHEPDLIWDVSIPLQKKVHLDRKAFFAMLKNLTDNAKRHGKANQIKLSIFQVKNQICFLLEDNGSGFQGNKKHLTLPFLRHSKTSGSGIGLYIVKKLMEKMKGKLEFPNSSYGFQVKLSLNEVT

[1] = target: phosphorylated HemRFL (full-length HemR, phosphorylated) (Leptospira biflexa); experiment: SEC; 600 uM HemRREC or HemRFL incubated with 5 mM acetyl phosphate, 10 mM MgCl2; dimeric phosphorylated form separated from monomeric non-phosphorylated form on Superdex 10/300 75 prep
[2] = target: phosphorylated HemRREC (receiver domain of HemR, phosphorylated) (Leptospira biflexa); experiment: as above

For Nc1ncnc2c1ncn2[C@@H]1O[C@H](COP(=O)(O)OP(=O)(O)OP(=O)(O)O)[C@@H](O)[C@H]1O [ATP], the “autophosphorylation, PhosTag-SDS-PAGE” value (HemKΔ80) was “possesses ATP-dependent autokinase activity (Fig 1A)”.

“phosphorylated HemRFL (full-length HemR, phosphorylated) (natural protein)” was tested, and the stoichiometry N [1] was 2.

With “phosphorylated HemRREC (receiver domain of HemR, phosphorylated) (domain or fragment)” the stoichiometry N [2] was 2.
